Data taken from patent US20230192796A1.

Columns and labels:
[1] = molecular target: Human IL-10Rβ extracellular domain (20-220), biotinylated (human) (UniProt Q08334); assay: SPR; clone 5.1 immobilized, pre-bound with saturating soluble IL-10Rα; details: ligand
[2] = molecular target: Human IL-10Rβ extracellular domain (20-220), biotinylated (human) (UniProt Q08334); assay: SPR; IL-10 clone 5.1 alone, immobilized; details: ligand
[3] = molecular target: Human IL-10Rβ on cells (Daudi, Jurkat, YT-1, THP-1 cell lines; primary human PBMC populations) (human) (UniProt Q08334); assay: cell-based or functional assay
Human IL-10Rβ on cells (Daudi, Jurkat, YT-1, THP-1 cell lines; primary human PBMC populations) (human), sequence (Q08334 20-325): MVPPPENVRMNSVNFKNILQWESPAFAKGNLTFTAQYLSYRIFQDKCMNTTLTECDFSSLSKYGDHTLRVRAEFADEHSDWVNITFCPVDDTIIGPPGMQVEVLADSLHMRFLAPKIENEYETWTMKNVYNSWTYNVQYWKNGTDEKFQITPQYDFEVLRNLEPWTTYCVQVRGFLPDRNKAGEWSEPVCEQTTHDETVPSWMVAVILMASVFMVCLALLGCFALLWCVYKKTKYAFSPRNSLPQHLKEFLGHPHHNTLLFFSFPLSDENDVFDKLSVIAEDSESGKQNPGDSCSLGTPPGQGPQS

Human IL-10Rβ extracellular domain (20-220), biotinylated (human), sequence (Q08334 other isoform, or with tags, fused parts or gaps): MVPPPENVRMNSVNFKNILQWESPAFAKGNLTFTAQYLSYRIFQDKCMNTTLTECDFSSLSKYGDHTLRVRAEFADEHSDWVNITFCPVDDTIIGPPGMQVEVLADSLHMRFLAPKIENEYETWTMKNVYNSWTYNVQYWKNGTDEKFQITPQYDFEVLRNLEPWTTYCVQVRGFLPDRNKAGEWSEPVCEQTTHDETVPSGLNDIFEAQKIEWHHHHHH

Kd [1] [µM]	Kd [2] [µM]	STAT3 activation relative to WT IL-10 in primary NK cells, B cells and T cells [3] [%]	phospho-STAT3 activity in YT-1 cells [3] [%]	Substance
0.03	0.07			Affinity matured IL-10 clone 5.1 (Super-10), soluble (from UniProt P22301 19-178)
		35 to 50	50	IL-10 D25A/E96A variant (10-DE) (from UniProt P22301 19-178) (ligand)
			50	IL-10 D25K variant (from UniProt P22301 19-178) (ligand)
